Laboratory results reported in the supplement of paper PMC5998384.

Legend:
[1] = system: HeLa Kyoto; experiment: solubility change mitosis vs G1/S (difference of NP-40 vs SDS log2 ratios) (log2 ratio difference); higher = more soluble in mitosis
[2] = system: HeLa Kyoto; experiment: solubility in G1/S (NP-40 vs SDS abundance) (log2 ratio); higher = more soluble; settings: cell cycle stage: G1/S
[3] = system: HeLa Kyoto; experiment: thermal stability score vs G1/S (z-score of summed log2 fold changes over temperatures); higher = more thermally stable than in G1/S
[4] = system: HeLa Kyoto; experiment: melting temperature (median over replicates), in situ; higher = more thermally stable
[5] = cell cycle stage: early G1 (4.5 h after nocodazole release)
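Wherever melting temperature (median over replicates), in situ is given: HeLa Kyoto cells synchronized by double thymidine or nocodazole block, proteins quantified by TMT10plex mass spectrometry, three independent biological replicates.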
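Wherever solubility change mitosis vs G1/S (difference of NP-40 vs SDS log2 ratios) is given: synchronized HeLa Kyoto cells (double thymidine block for G1/S, nocodazole release for mitosis), protein amounts in NP-40 versus SDS lysates quantified by mass spectrometry, three biological replicates.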
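Wherever solubility in G1/S (NP-40 vs SDS abundance) is given: HeLa Kyoto cells arrested at G1/S by double thymidine block, proteins quantified by TMT10plex mass spectrometry in mild NP-40 versus SDS extracts, three biological replicates.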
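Wherever thermal stability score vs G1/S (z-score of summed log2 fold changes over temperatures) is given: synchronized HeLa Kyoto cells, proteins quantified by TMT10plex mass spectrometry, three biological replicates, mitosis taken 0.5 h after nocodazole release, G1/S directly after double thymidine block.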

EPB41L5, sequence (chain, as listed by the source): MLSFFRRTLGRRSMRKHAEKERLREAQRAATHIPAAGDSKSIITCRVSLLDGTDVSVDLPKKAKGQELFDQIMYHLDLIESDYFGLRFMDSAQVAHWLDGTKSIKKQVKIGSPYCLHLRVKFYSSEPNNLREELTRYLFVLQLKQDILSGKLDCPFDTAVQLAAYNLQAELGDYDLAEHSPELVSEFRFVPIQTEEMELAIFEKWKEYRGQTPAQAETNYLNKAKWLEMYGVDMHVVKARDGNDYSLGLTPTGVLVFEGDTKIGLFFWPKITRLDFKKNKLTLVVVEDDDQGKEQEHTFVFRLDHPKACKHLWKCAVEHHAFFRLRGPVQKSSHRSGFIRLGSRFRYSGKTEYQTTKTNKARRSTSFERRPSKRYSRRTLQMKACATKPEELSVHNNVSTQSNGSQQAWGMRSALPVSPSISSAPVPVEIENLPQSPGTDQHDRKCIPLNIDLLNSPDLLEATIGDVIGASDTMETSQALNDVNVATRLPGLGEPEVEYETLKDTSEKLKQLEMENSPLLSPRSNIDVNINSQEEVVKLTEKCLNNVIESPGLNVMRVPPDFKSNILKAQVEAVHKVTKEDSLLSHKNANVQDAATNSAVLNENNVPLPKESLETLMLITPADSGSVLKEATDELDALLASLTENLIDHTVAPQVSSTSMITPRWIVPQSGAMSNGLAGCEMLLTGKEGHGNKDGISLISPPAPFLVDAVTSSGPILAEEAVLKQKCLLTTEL
ISG20, sequence (chain, as listed by the source): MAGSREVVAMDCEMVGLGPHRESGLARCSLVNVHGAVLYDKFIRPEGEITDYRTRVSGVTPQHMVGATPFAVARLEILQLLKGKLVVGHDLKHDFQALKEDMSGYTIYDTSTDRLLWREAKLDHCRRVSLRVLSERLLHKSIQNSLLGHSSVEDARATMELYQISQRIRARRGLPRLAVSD
CLK4, sequence (chain, as listed by the source): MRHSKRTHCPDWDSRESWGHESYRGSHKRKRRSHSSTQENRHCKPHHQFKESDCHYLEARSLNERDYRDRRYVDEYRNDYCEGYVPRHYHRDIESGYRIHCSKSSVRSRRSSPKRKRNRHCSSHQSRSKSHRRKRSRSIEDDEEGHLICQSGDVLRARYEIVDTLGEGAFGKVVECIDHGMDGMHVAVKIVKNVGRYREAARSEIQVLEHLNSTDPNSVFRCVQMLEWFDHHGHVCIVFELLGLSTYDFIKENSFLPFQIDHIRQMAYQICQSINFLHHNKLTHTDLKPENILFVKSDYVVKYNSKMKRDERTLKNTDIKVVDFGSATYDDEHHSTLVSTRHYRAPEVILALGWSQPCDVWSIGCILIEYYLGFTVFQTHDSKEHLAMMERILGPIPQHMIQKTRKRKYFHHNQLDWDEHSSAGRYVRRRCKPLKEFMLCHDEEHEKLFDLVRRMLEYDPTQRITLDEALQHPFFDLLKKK
ARNTL, sequence (chain, as listed by the source): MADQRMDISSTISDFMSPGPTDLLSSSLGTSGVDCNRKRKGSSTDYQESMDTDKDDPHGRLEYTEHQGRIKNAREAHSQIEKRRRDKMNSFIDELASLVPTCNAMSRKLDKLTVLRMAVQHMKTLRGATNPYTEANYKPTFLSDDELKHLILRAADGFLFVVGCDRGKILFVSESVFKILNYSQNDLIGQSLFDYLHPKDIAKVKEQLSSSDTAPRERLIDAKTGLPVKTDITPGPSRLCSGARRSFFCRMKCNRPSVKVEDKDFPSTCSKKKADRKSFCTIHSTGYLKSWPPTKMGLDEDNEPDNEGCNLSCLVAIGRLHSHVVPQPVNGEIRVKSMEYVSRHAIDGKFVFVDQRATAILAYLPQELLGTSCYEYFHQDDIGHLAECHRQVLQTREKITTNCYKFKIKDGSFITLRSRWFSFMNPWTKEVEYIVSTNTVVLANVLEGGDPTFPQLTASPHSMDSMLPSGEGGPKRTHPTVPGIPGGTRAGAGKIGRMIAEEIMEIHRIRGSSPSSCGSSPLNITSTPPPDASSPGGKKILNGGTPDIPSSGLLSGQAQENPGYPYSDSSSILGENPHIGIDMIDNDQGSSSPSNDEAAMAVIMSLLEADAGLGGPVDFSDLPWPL

ACACA
solubility change mitosis (log2) [1]: -0.227

ACADSB
solubility change mitosis (log2) [1]: -0.0159

ALYREF
solubility change mitosis (log2) [1]: 0.776

ANKRD11
solubility change mitosis (log2) [1]: 0.268
solubility in G1/S (log2) [2]: -0.497

ARHGEF17
solubility change mitosis (log2) [1]: 0.166
solubility in G1/S (log2) [2]: -0.434

ARNTL
solubility change mitosis (log2) [1]: -0.179
solubility in G1/S (log2) [2]: -0.0786

ARPC3
solubility change mitosis (log2) [1]: 0.222

ARPC4
solubility change mitosis (log2) [1]: -0.115

BRCA1
solubility change mitosis (log2) [1]: 0.246
solubility in G1/S (log2) [2]: -0.318

CAMKMT
solubility change mitosis (log2) [1]: 0.137

CAPN15
solubility change mitosis (log2) [1]: -0.0119
solubility in G1/S (log2) [2]: -0.427

CAPZA1
solubility change mitosis (log2) [1]: -0.0799

CEP192
solubility change mitosis (log2) [1]: -0.137
solubility in G1/S (log2) [2]: -0.295

CEP350
solubility change mitosis (log2) [1]: 0.0106
solubility in G1/S (log2) [2]: 0.00287

CHD1
solubility change mitosis (log2) [1]: 0.383
solubility in G1/S (log2) [2]: -2.28

CLIC3
solubility change mitosis (log2) [1]: -0.00439
solubility in G1/S (log2) [2]: 0.369

CLK4
solubility change mitosis (log2) [1]: 0.508
solubility in G1/S (log2) [2]: -1.44

CTBP1
solubility change mitosis (log2) [1]: -0.0691

DAP3
solubility change mitosis (log2) [1]: -0.0659

DDA1
solubility change mitosis (log2) [1]: 0.3

EPB41L5
solubility change mitosis (log2) [1]: 0.268
solubility in G1/S (log2) [2]: -0.503

EVPL
solubility change mitosis (log2) [1]: 0.319
solubility in G1/S (log2) [2]: -0.382

FAM208B
solubility change mitosis (log2) [1]: 0.423
solubility in G1/S (log2) [2]: -0.671

FMR1
solubility change mitosis (log2) [1]: 0.261

GNB2L1
solubility change mitosis (log2) [1]: 0.272

GOPC
solubility change mitosis (log2) [1]: -0.0477

ICE1
solubility change mitosis (log2) [1]: 0.51
solubility in G1/S (log2) [2]: -0.864

INPP4A
solubility change mitosis (log2) [1]: -0.0329

ISG20
solubility change mitosis (log2) [1]: -0.182
solubility in G1/S (log2) [2]: 0.28

KIAA0368
solubility change mitosis (log2) [1]: -0.156
solubility in G1/S (log2) [2]: 0.0203

KIAA0907
solubility change mitosis (log2) [1]: 0.046

KIAA1524
solubility change mitosis (log2) [1]: -0.103

KMT2C
solubility change mitosis (log2) [1]: -0.0115
solubility in G1/S (log2) [2]: 0.137

KPNA2
solubility change mitosis (log2) [1]: 0.136

LEO1
solubility change mitosis (log2) [1]: -0.0441

MAAAAAETPEVLRECGCKGIRTCLICERQRGSDPPWELPPAKTYRFIYCSDTGWAVGTEESDFEGWAFPFPGVMLIEDFVTREEEAELVRLMDRDPWKLSQSGRRKQDYGPKVNFRKQKLKTEGFCGLPSFSREVVRRMGLYPGLEGFRPVEQCNLDYCPERGSAIDPHLDDAWLWGERLVSLNLLSPTVLSMCREAPGSLLLCSAPSAAPEALVDSVIAPSRSVLCQEVEVAIPLPARSLLVLTGAARHQWKHAIHRRHIEARRVCVTFRELSAEFGPGGRQQELGQELLRIALSFQGRPV [ALKBH4]
solubility change mitosis (log2) [1]: -0.0312
solubility in G1/S (log2) [2]: 0.184

MAGRVPSLLVLLVFPSSCLAFRSPLSVFKRFKETTRPFSNECLGTTRPVVPIDSSDFALDIRMPGVTPKQSDTYFCMSMRIPVDEEAFVIDFKPRASMDTVHHMLLFGCNMPSSTGSYWFCDEGTCTDKANILYAWARNAPPTRLPKGVGFRVGGETGSKYFVLQVHYGDISAFRDNNKDCSGVSLHLTRLPQPLIAGMYLMMSVDTVIPAGEKVVNSDISCHYKNYPMHVFAYRVHTHHLGKVVSGYRVRNGQWTLIGRQSPQLPQAFYPVGHPVDVSFGDLLAARCVFTGEGRTEATHIGGTSSDEMCNLYIMYYMEAKHAVSFMTCTQNVAPDMFRTIPPEANIPIPVKSDMVMMHEHHKETEYKDKIPLLQQPKREEEEVLDQGDFYSLLSKLLGEREDVVHVHKYNPTEKAESESDLVAEIANVVQKKDLGRSDAREGAEHERGNAILVRDRIHKFHRLVSTLRPPESRVFSLQQPPPGEGTWEPEHTGDFHMEEALDWPGVYLLPGQVSGVALDPKNNLVIFHRGDHVWDGNSFDSKFVYQQIGLGPIEEDTILVIDPNNAAVLQSSGKNLFYLPHGLSIDKDGNYWVTDVALHQVFKLDPNNKEGPVLILGRSMQPGSDQNHFCQPTDVAVDPGTGAIYVSDGYCNSRIVQFSPSGKFITQWGEESSGSSPLPGQFTVPHSLALVPLLGQLCVADRENGRIQCFKTDTKEFVREIKHSSFGRNVFAISYIPGLLFAVNGKPHFGDQEPVQGFVMNFSNGEIIDIFKPVRKHFDMPHDIVASEDGTVYIGDAHTNTVWKFTLTEKLEHRSVKKAGIEVQEIKEAEAVVETKMENKPTSSELQKMQEKQKLIKEPGSGVPVVLITTLLVIPVVVLLAIAIFIRWKKSRAFGDSEHKLETSSGRVLGRFRGKGSGGLNLGNFFASRKGYSRKGFDRLSTEGSDQEKEDDGSESEEEYSAPLPALAPSSS [PAM]
thermal stability score [3, 5]: -1.73
thermal stability score ([3]; cell cycle stage: mitosis): -2.21
solubility change mitosis (log2) [1]: -0.0982

METAP1
solubility change mitosis (log2) [1]: 0.0188

MIB1
solubility change mitosis (log2) [1]: 0.06

MRPL10
solubility change mitosis (log2) [1]: -0.0658

MRPL11
solubility change mitosis (log2) [1]: 0.173

MRPL14
solubility change mitosis (log2) [1]: 0.104

MRPL23
solubility change mitosis (log2) [1]: 0.185

MRPL24
solubility change mitosis (log2) [1]: 0.022

MRPL27
solubility change mitosis (log2) [1]: 0.243

MRPL37
solubility change mitosis (log2) [1]: -0.0819

MRPL39
solubility change mitosis (log2) [1]: -0.14

MRPL45
solubility change mitosis (log2) [1]: -0.0934

MRPL48
solubility change mitosis (log2) [1]: -0.0228

MRPL51
solubility change mitosis (log2) [1]: -0.136

MRPL54
solubility change mitosis (log2) [1]: 0.343

MRPS7
solubility change mitosis (log2) [1]: -0.0353

MRPS15
solubility change mitosis (log2) [1]: 0.176

MRPS16
solubility change mitosis (log2) [1]: -0.0244

MRPS27
solubility change mitosis (log2) [1]: -0.149

MRPS34
solubility change mitosis (log2) [1]: 0.0157

MSGTRASNDRPPGAGGVKRGRLQQEAAATGSRVTVVLGAQWGDEGKGKVVDLLATDADIISRCQGGNNAGHTVVVDGKEYDFHLLPSGIINTKAVSFIGNGVVIHLPGLFEEAEKNEKKGLKDWEKRLIISDRAHLVFDFHQAVDGLQEVQRQAQEGKNIGTTKKGIGPTYSSKAARTGLRICDLLSDFDEFSSRFKNLAHQHQSMFPTLEIDIEGQLKRLKGFAERIRPMVRDGVYFMYEALHGPPKKILVEGANAALLDIDFGTYPFVTSSNCTVGGVCTGLGIPPQNIGDVYGVVKAYTTRVGIGAFPTEQINEIGGLLQTRGHEWGVTTGRKRRCGWLDLMILRYAHMVNGFTALALTKLDILDVLGEVKVGVSYKLNGKRIPYFPANQEMLQKVEVEYETLPGWKADTTGARRWEDLPPQAQNYIRFVENHVGVAVKWVGVGKSRESMIQLF [ADSSL1]
thermal stability score [3, 5]: -1.69
thermal stability score ([3]; cell cycle stage: mitosis): -2.13
melting temperature ([4]; cell cycle stage: G1/S): 55.3 °C
melting temperature ([4]; cell cycle stage: mitosis): 55.4 °C

MTMR1
solubility change mitosis (log2) [1]: 0.0778

MTOR
solubility change mitosis (log2) [1]: -0.154

MWSAGRGGAAWPVLLGLLLALLVPGGGAAKTGAELVTCGSVLKLLNTHHRVRLHSHDIKYGSGSGQQSVTGVEASDDANSYWRIRGGSEGGCPRGSPVRCGQAVRLTHVLTGKNLHTHHFPSPLSNNQEVSAFGEDGEGDDLDLWTVRCSGQHWEREAAVRFQHVGTSVFLSVTGEQYGSPIRGQHEVHGMPSANTHNTWKAMEGIFIKPSVEPSAGHDEL [SDF2L1]
thermal stability score [3, 5]: 4.06
thermal stability score ([3]; cell cycle stage: mitosis): 1.19
solubility change mitosis (log2) [1]: -0.0974

MYH14
thermal stability score [3, 5]: -0.174
thermal stability score ([3]; cell cycle stage: mitosis): -1.24
melting temperature ([4]; cell cycle stage: G1/S): 53.1 °C
melting temperature ([4]; cell cycle stage: mitosis): 52.2 °C

NCAPG
solubility change mitosis (log2) [1]: -0.0373

NDUFB10
solubility change mitosis (log2) [1]: 0.185

NEGR1
solubility change mitosis (log2) [1]: -0.204

NOC2L
solubility change mitosis (log2) [1]: 0.667

NUDT5
solubility change mitosis (log2) [1]: 0.0137

OLR1
solubility change mitosis (log2) [1]: 0.51

OXA1L
solubility change mitosis (log2) [1]: -0.112

PHLDA3
solubility change mitosis (log2) [1]: 0.0241

POLR2A
solubility change mitosis (log2) [1]: 0.228

POLR2C
solubility change mitosis (log2) [1]: 0.102

POLR2K
solubility change mitosis (log2) [1]: 0.187

PRKACA
solubility change mitosis (log2) [1]: -0.0702

RAN
solubility change mitosis (log2) [1]: 0.0277

RBM8A
solubility change mitosis (log2) [1]: 0.468

RBX1
solubility change mitosis (log2) [1]: -0.338

RPL6
solubility change mitosis (log2) [1]: 0.908

RPL7
solubility change mitosis (log2) [1]: 0.696

RPL11
solubility change mitosis (log2) [1]: 0.596

RPL15
solubility change mitosis (log2) [1]: 0.657

RPL23A
solubility change mitosis (log2) [1]: 0.826

RPL24
solubility change mitosis (log2) [1]: 0.971

RPL27A
solubility change mitosis (log2) [1]: 1.02

RPL31
solubility change mitosis (log2) [1]: 0.763

RPL34
solubility change mitosis (log2) [1]: 0.894

RPL36
solubility change mitosis (log2) [1]: 0.849

RPL36A
solubility change mitosis (log2) [1]: 0.902

RPL38
solubility change mitosis (log2) [1]: 0.638

RPS3
solubility change mitosis (log2) [1]: 0.437

RPS6
solubility change mitosis (log2) [1]: 0.803

RPS11
solubility change mitosis (log2) [1]: 0.597

RPS12
solubility change mitosis (log2) [1]: 0.588

RPS14
solubility change mitosis (log2) [1]: 0.203

RPS27A
solubility change mitosis (log2) [1]: 0.852

RSL1D1
solubility change mitosis (log2) [1]: 1.5

SETDB1
solubility change mitosis (log2) [1]: -0.0625

SNRPN
solubility change mitosis (log2) [1]: 0.368

SUB1
solubility change mitosis (log2) [1]: 0.154

TCEA1
solubility change mitosis (log2) [1]: -0.0112

TOLLIP
solubility change mitosis (log2) [1]: 0.0779

TRIM16
solubility change mitosis (log2) [1]: -0.177
